Assay results: patent publication US20120009199A1 (AstraZeneca / MedImmune, published 2012)

Target: the molecule itself
Assay: stopped-flow kinetics with light scattering detection, dilution from 10 to 1 mg/ml at 4 C, self-association
Description: High molecular weight forms are known to cause increased intensity of light scattering compared to monomer. Dissociation of the MabA present in the HPSEC shoulder, (apparent molecular weight of 213 kDa) would, therefore, be expected to result in a decrease in light scattering.

B1: MabA (antibody, human IgG2, V domains shown)
VH: QVQLVESGGGLVKPGGSLRLSCAASGFTFSDYYMNWIRQAPGKGLEWVSYISSSGSIIYYADSVKGRFTISRDNAKNSLYLQMNSLRAEDTAVYYCAREGRIAARGMDVWGQGTTVTVSS
VL: DIQMTQSPSSLSASVGDRVTITCRPSQSFSRYINWYQQKPGKAPKLLIYAASSLVGGVPSRFSGSGSGTDFTLTISSLQPEDFATYYCQQTYSNPPITFGQGTRLEIK
notes: Full-length human IgG2; also called anti-PDGFR-alpha antibody; human IgG2 anti-PDGFR-alpha antibody
B1 was tested, and the “apparent half-life of dissociation of the self-associated species” value was 14 s.
